Reference: patent US20160159906A1 (Genentech, published 2016)

What was measured:
[1] = target: T1, human CD79b (human, UniProt P40259 29-229); test: FACS on BJAB-luciferase cells, bivalent binding, PE anti-human IgG
T1 construct: Endogenous CD79b on BJAB / BJAB-luciferase cells (FACS) and on human B cells (killing assays); also called huCD79b; Igβ
T1 sequence: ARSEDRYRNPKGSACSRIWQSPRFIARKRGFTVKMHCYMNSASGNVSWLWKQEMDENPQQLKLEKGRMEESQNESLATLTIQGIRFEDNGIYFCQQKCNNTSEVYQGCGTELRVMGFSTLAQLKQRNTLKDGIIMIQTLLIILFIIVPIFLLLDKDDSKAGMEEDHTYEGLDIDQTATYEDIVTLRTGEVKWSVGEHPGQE
Protocol: At the end of the incubation, cells were washed with ice cold FACS buffer (1× PBS, 2% BSA, 2 mM EDTA), followed by incubation with PE-labeled mouse anti-human IgG antibody (BD bioscience #555787). Flow cytometry analysis was done on a BD LSR analyzer. Bivalent binding was expressed as Mean Fluorescence Intensity (MFI) of PE fluorophore.

[2] = target: T1, human CD79b; test: FACS on BJAB cells (FIG. 3C)
Protocol: (§1) BJAB cells were incubated with anti-CD79b antibody (bivalent, dual arm antibody) or anti-CD79b/CD3 TDB antibody as indicated for 30 minutes on ice. At the end of the incubation, cells were washed with ice cold FACS buffer (lx PBS, 2% BSA, 2mM EDTA), followed by incubation with PE-labeled mouse anti-human IgG antibody (BD bioscience #555787). Flow cytometry analysis was done on a BD LSR analyzer. Antibody binding was expressed as Mean Fluorescence Intensity (MFI) of PE fluorophore. A: The bivalent binding affinity of anti-CD79b clone 2F2 comparing to monovalent binding affinity of anti-CD79b clones 2F2, SN8v28, and SN8new (as K&H TDBs); B: bivalent binding affinity of anti-CD79b clones CD79b.F6 and CD79b.A7 comparing to monovalent binding of anti-CD79b clones CD79b.F6, CD79b.A7, and SN8v28 (as bisfab or K&H TDBs); C: bivalent binding affinity of anti-CD79b clone CD79b.A7.v14 comparing to monovalent binding of anti-CD79b clone CD79b.A7.v14 (as K&H TDBs).
Binding affinity of the humanized CD79.A7.v14 of monovalent and bivalent was tested as described above.

[3] = target: T2, human CD79b fused with an Fc domain at the C-terminus (printed at paragraph 314 as Human CD79a fused with an Fc … (human, UniProt P40259 29-159)); test: Biacore T100 SPR, bivalent IgG over CD79b-Fc immobilized at low density; apparent affinity
T2 construct: also called CD79b immobilized at a low density; Fc-tagged ECD of human CD79b; not shown: Fc domain at the C-terminus
T2 sequence: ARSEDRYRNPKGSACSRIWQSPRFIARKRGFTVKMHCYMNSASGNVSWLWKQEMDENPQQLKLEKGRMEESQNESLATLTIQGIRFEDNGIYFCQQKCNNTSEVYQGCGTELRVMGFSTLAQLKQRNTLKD
Protocol: The binding affinity of the antibodies in this section was determined by BIAcore™ T100. Briefly, BIAcore™ research grade CM5 chips were activated with 1-ethyl-3-(3-dimethylaminopropyl) carbodiimide (EDC) and N-hydroxysuccinimide (NHS) reagents according to the supplier's instructions. Human […] fused with an Fc domain at the C-terminus was coupled to the chips. To achieve more monovalent binding events, low density of ˜12 response units (RU) was immobilized in each flow cell. For measuring the apparent affinity of the antibodies, ˜370 RU of the antigen was immobilized. Unreacted coupling groups were blocked with 1M ethanolamine. For kinetics measurements, three-fold serial dilutions of antibody was injected in PBS-T buffer (0.05% surfactant P20 in PBS) at 25° C. with a flow rate of 30 μl/min. 10 mM glycine, pH 1.7 was used as regeneration buffer at 30 ul/min flow rate for 1 minute. Association rates (kₒₙ) and dissociation rates (koff) were calculated using a 1:1 Langmuir binding model (BIAcore™ T100 Evaluation Software version 2.0). The equilibrium dissociation constant (Kd) was calculated as the ratio koff/kₒₙ.
Thus additional humanized variants were made to evaluate the contribution of mouse framework vernier positions towards binding. Six additional light chains (VL1: CDRs graft+(Y36L), VL2: CDRs graft+(Y36L+L46C), VL3: CDRs graft+(I2V+Y36L+L46C), VL4: CDRs graft+(Y36L+L46S), VL5: CDRs graft+(I2V+Y36L+L46S), VL6: CDRs graft+(L46S)) and seven additional heavy chains (VH1a: CDRs graft+(A93S), VH1b: CDRs graft+(R71V+A93S), VH1c: CDRs graft+(V67A+I69L+R71V+A93S), VH1d:CDRs graft+(V67A+I69L+R71V+T73K+A93S), VH1e: CDRs graft+(V67A+R71V+A93S), VH1f: CDRs graft+(I69L+R71V+A93S), and VH1g: CDRs graft+(V67A+I69L)) were constructed and combined to generate the variants in Table 2. Based on the affinities of these variants, Y36L and L46C in the light chain appear to be key mouse vernier residues. […] In the heavy chain, V67A, I69L, R71V and A93S also contributed to CD79b binding; however R71V appeared to be the key mouse vernier residues based on this mutational analysis.

[4] = target: T3, CD79b.A7, dual arm, bivalent anti-CD79b antibody; test: FACS on BJAB cells, peptide competition (data not shown)
T3 construct: Mouse hybridoma clone; also called CD79.A7; muCD79b.A7
T3 sequence (VL, as listed by the source): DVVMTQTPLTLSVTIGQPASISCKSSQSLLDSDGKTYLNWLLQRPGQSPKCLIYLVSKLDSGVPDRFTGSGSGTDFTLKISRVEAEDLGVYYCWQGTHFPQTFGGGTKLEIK

[5] = target: T1, human CD79b; test: cell-based or functional assay
[6] = target: T1, human CD79b; test: FACS on BJAB cells (FIG. 3B); bispecific bisfab, monovalent for CD79b
Protocol: as §1
(§2) The monovalent and bivalent anti-CD79b antibody binding affinity was also evaluated in order to better understand the contribution, if any, to B cell killing activity. Binding affinity of dual arm, bivalent anti-CD79b antibodies and bispecific anti-CD79b/ CD3 antibodies using BJAB cells were also analyzed. […]

[7] = target: T1, human CD79b; test: FACS on BJAB cells, PE-labeled mouse anti-human IgG detection, MFI [panel A]
Protocol: as §1, §2

B1: CD79b.A7.v14 (antibody, V domains shown)
VH: EVQLVQSGAEVKKPGASVKVSCKASGYTFTTYWMNWVRQAPGQGLEWIGMIDPSDSETHYNQMFKDRATLTVDTSTSTAYLELSSLRSEDTAVYYCSRSLAFWGQGTLVTVSS
VL: DIVMTQTPLSLPVTPGQPASISCKSSQSLLDSDGKTYLNWLLQKPGQSPQSLIYLVSKLDSGVPDRFSGSGSGTDFTLKISRVEAEDVGVYYCWQGTHFPQTFGQGTKVEIK
notes: VH1c + VL4; bivalent, dual arm IgG; also called huCD79b.A7.v14; CD79.A7.v14
EC50 [1]: 0.068 µg/mL
EC50 [2]: 0.0468 µg/mL
Kd [3]: 5 nM

B2: monovalent CD79.A7.v14 in the K&H TDB format CD79.A7.v14/40G5c (bispecific antibody, V domains shown)
VH 1: EVQLVQSGAEVKKPGASVKVSCKASGYTFTTYWMNWVRQAPGQGLEWIGMIDPSDSETHYNQMFKDRATLTVDTSTSTAYLELSSLRSEDTAVYYCSRSLAFWGQGTLVTVSS
VL 1: DIVMTQTPLSLPVTPGQPASISCKSSQSLLDSDGKTYLNWLLQKPGQSPQSLIYLVSKLDSGVPDRFSGSGSGTDFTLKISRVEAEDVGVYYCWQGTHFPQTFGQGTKVEIK
VH 2: EVQLVQSGAEVKKPGASVKVSCKASGYTFTNYYIHWVRQAPGQGLEWIGWIYPGDGNTKYNEKFKGRATLTADTSTSTAYLELSSLRSEDTAVYYCARDSYSNYYFDYWGQGTLVTVSS
VL 2: DIVMTQSPDSLAVSLGERATINCKSSQSLLNSRTRKNYLAWYQQKPGQPPKLLIYWASTRESGVPDRFSGSGSGTDFTLTISSLQAEDVAVYYCTQSFILRTFGQGTKVEIK
notes: also called CD79b.A7.v14/40G5c K&H
EC50 [2]: 0.22 µg/mL

B3: CD79b.A7.v21 (antibody, V domains shown)
VH: EVQLVQSGAEVKKPGASVKVSCKASGYTFTTYWMNWVRQAPGQGLEWIGMIDPSDSETHYNQMFKDRVTLTVDTSTSTAYLELSSLRSEDTAVYYCSRSLAFWGQGTLVTVSS
VL: DIVMTQTPLSLPVTPGQPASISCKSSQSLLDSDGKTYLNWLLQKPGQSPQSLIYLVSKLDSGVPDRFSGSGSGTDFTLKISRVEAEDVGVYYCWQGTHFPQTFGQGTKVEIK
notes: VH1f + VL4; assessed as IgG
Kd [3]: 8 nM

B4: CD79b.A7.v18 (antibody, V domains shown)
VH: EVQLVQSGAEVKKPGASVKVSCKASGYTFTTYWMNWVRQAPGQGLEWIGMIDPSDSETHYNQMFKDRATLTVDKSTSTAYLELSSLRSEDTAVYYCSRSLAFWGQGTLVTVSS
VL: DIVMTQTPLSLPVTPGQPASISCKSSQSLLDSDGKTYLNWLLQKPGQSPQSLIYLVSKLDSGVPDRFSGSGSGTDFTLKISRVEAEDVGVYYCWQGTHFPQTFGQGTKVEIK
notes: VH1d + VL4; assessed as IgG
Kd [3]: 4 nM

B5: CD79b.A7.v20 (antibody, V domains shown)
VH: EVQLVQSGAEVKKPGASVKVSCKASGYTFTTYWMNWVRQAPGQGLEWIGMIDPSDSETHYNQMFKDRATITVDTSTSTAYLELSSLRSEDTAVYYCSRSLAFWGQGTLVTVSS
VL: DIVMTQTPLSLPVTPGQPASISCKSSQSLLDSDGKTYLNWLLQKPGQSPQSLIYLVSKLDSGVPDRFSGSGSGTDFTLKISRVEAEDVGVYYCWQGTHFPQTFGQGTKVEIK
notes: VH1e + VL4; assessed as IgG
Kd [3]: 8 nM

B6: CD79b.A7.v15 (antibody, V domains shown)
VH: EVQLVQSGAEVKKPGASVKVSCKASGYTFTTYWMNWVRQAPGQGLEWIGMIDPSDSETHYNQMFKDRATLTVDTSTSTAYLELSSLRSEDTAVYYCSRSLAFWGQGTLVTVSS
VL: DVVMTQTPLSLPVTPGQPASISCKSSQSLLDSDGKTYLNWLLQKPGQSPQSLIYLVSKLDSGVPDRFSGSGSGTDFTLKISRVEAEDVGVYYCWQGTHFPQTFGQGTKVEIK
notes: VH1c + VL5; assessed as IgG
Kd [3]: 5 nM

B7: CD79b.A7.v19 (antibody, V domains shown)
VH: EVQLVQSGAEVKKPGASVKVSCKASGYTFTTYWMNWVRQAPGQGLEWIGMIDPSDSETHYNQMFKDRATLTVDKSTSTAYLELSSLRSEDTAVYYCSRSLAFWGQGTLVTVSS
VL: DVVMTQTPLSLPVTPGQPASISCKSSQSLLDSDGKTYLNWLLQKPGQSPQSLIYLVSKLDSGVPDRFSGSGSGTDFTLKISRVEAEDVGVYYCWQGTHFPQTFGQGTKVEIK
notes: VH1d + VL5; assessed as IgG
Kd [3]: 4 nM

B8: Peptide 1, 21-amino acid peptide ARSEDRYRNPKGSACSRIWQS that corresponds to the NH2 termini of huCD79b (peptide)
peptide: ARSEDRYRNPKGSACSRIWQS
binding result [4]: binds

B9: bispecific bisfab anti-CD79b/CD3 (CD79b.A7/UCHT1.v9) (bispecific antibody, V domains shown)
VH 1: QVQLQQPGVELVRPGASVKLSCKASGYTFTTYWMNWVRQRPGQGLDWIGMIDPSDSETHYNQMFKDKATLTVDKSSSTAYIQLNSLTSEDSAVYYCSRSLAFWGQGTLVTVSA
VL 1: not shown
VH 2: EVQLVESGGGLVQPGGSLRLSCAASGYSFTGYTMNWVRQAPGKDLEWVALINPYKGVSTYNQKFKDRFTISVDKSKNTAYLQMNSLRAEDTAVYYCARSGYYGDSDWYFDVWGQGTLVTVSS
VL 2: DIQMTQSPSSLSASVGDRVTITCRASQDIRNYLNWYQQKPGKAPKLLIYYTSRLESGVPSRFSGSGSGTDYTLTISSLQPEDFATYYCQQGNTLPWTFGQGTKLELK
notes: Bisfab format; constant parts and the link between the two Fabs are not described; also called CD79b.A7/UHT1.v9
endogenous B cell killing EC50 [5]: 0.012 µg/mL
EC50 [6]: 1.4 µg/mL

B10: SN8.new/UCHT1.v9 bispecific K&H antibody (bispecific antibody, V domains shown)
VH 1: EVQLVESGGGLVQPGGSLRLSCAASGYTFSSYWIEWVRQAPGKGLEWVGEILPGGGDTNYNEIFKGRFTISADTSKNTAYLQMNSLRAEDTAVYYCTRRVPIRLDYWGQGTLVTVSS
VL 1: DIQMTQSPSSLSASVGDRVTITCKASQSVDYDGDSFLNWYQQKPGKAPKLLIYAARKLGRGVPSRFSGSGSGTDFTLTISSLQPEDFATYYCQQSNEDPLTFGQGTKVEIK
VH 2: EVQLVESGGGLVQPGGSLRLSCAASGYSFTGYTMNWVRQAPGKDLEWVALINPYKGVSTYNQKFKDRFTISVDKSKNTAYLQMNSLRAEDTAVYYCARSGYYGDSDWYFDVWGQGTLVTVSS
VL 2: DIQMTQSPSSLSASVGDRVTITCRASQDIRNYLNWYQQKPGKAPKLLIYYTSRLESGVPSRFSGSGSGTDYTLTISSLQPEDFATYYCQQGNTLPWTFGQGTKLELK
EC50 (read off the curve) [7]: ~1 µg/mL

B11: chCD79b.A7 (antibody, V domains shown)
VH: QVQLQQPGVELVRPGASVKLSCKASGYTFTTYWMNWVRQRPGQGLDWIGMIDPSDSETHYNQMFKDKATLTVDKSSSTAYIQLNSLTSEDSAVYYCSRSLAFWGQGTLVTVSA
VL: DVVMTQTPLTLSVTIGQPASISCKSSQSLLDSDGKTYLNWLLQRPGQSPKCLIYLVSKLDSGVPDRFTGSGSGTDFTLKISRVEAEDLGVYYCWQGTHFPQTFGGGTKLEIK
notes: Chimeric form of CD79b.A7 by its prefix ch
EC50 [1]: 0.124 µg/mL
